{"source": "paper PMC7375243", "about": "“Structural Basis of Human Helicase DDX21 in RNA Binding, Unwinding, and Antiviral Signal Activation” (Advanced Science, 2020)", "key": {"[1]": {"target": "the molecule itself", "test": "SEC; gel filtration of DDX21 del-C (1-710) and del-NC (188-710), data not shown; final SEC buffer of del-C with 200 mM NaCl"}, "[2]": {"target": "T1, DDX21 helicase core (D1D2, DDX21-delNC) (human, UniProt Q9NR30 188-563)", "T1 sequence": "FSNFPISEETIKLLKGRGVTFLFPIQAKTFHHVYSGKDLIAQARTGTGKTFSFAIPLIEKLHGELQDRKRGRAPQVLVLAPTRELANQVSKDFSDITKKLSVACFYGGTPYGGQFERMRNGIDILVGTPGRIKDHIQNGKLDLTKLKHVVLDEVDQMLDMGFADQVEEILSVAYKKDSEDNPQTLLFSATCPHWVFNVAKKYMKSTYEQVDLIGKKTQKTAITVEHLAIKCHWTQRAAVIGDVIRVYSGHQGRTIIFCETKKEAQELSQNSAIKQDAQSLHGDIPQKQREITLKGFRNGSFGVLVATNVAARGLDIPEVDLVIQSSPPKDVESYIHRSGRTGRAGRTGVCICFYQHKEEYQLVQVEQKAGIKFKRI", "test": "crystal structure; AMPPNP, Mg2+; 2.24 A, 7 nt visible; MST: 50 mM Tris pH 7.5, 50 mM KCl, 2 mM MgCl2, 1 mM TCEP, 0.01% NP-40, 0.05 mg/mL BSA, 2 mM AMPPNP, 50 nM FAM-RNA; temperature not given; crosslinking buffer not in material", "settings": "protein: recombinant; tags: N-terminal His-SUMO, removed by ULP1; single strand"}, "[3]": {"target": "T2, DDX21 full-length (human, UniProt Q9NR30 1-783)", "T2 sequence": "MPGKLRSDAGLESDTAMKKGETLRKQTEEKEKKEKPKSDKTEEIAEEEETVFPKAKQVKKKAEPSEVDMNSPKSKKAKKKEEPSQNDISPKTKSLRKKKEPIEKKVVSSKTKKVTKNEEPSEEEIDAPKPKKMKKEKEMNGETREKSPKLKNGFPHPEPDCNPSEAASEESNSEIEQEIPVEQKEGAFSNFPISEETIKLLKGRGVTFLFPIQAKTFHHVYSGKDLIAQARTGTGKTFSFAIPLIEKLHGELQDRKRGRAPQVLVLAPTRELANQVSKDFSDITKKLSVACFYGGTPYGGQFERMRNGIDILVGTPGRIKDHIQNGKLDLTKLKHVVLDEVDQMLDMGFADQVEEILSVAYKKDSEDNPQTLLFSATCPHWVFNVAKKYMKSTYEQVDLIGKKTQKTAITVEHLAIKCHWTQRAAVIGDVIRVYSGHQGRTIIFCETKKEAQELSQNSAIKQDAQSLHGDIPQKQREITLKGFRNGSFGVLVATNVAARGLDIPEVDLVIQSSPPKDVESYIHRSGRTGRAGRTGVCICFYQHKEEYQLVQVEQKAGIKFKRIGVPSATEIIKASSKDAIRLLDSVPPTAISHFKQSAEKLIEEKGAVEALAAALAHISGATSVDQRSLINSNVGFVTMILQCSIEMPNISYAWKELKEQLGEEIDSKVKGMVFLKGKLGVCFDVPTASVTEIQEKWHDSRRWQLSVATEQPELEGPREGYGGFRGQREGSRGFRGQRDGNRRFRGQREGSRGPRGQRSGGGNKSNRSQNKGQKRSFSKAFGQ", "test": "UV crosslinking/MST/SEC (method for this pair not specified); MST: 50 mM Tris pH 7.5, 50 mM KCl, 2 mM MgCl2, 1 mM TCEP, 0.01% NP-40, 0.05 mg/mL BSA, 2 mM AMPPNP, 50 nM FAM-RNA; temperature not given; crosslinking buffer not in material", "settings": "protein: recombinant; tags: N-terminal His-SUMO, removed by ULP1; chain copies: 3; single strand"}, "[4]": {"target": "the molecule itself", "test": "SAXS; beamline BL19U2, 1-3 mg/mL protein; 20 mM Tris-HCl pH 7.5, 1 mM TCEP, 100 mM NaCl for DDX21 (188-563), 500 mM NaCl for DDX21 (1-783); ab initio envelopes (GASBOR)"}}, "data": [{"binder": "DDX21 del-NC (188-710) (domain or fragment, human, UniProt Q9NR30-1 188-710, looked up, human DDX21, residues 188-710) FSNFPISEETIKLLKGRGVTFLFPIQAKTFHHVYSGKDLIAQARTGTGKTFSFAIPLIEKLHGELQDRKRGRAPQVLVLAPTRELANQVSKDFSDITKKLSVACFYGGTPYGGQFERMRNGIDILVGTPGRIKDHIQNGKLDLTKLKHVVLDEVDQMLDMGFADQVEEILSVAYKKDSEDNPQTLLFSATCPHWVFNVAKKYMKSTYEQVDLIGKKTQKTAITVEHLAIKCHWTQRAAVIGDVIRVYSGHQGRTIIFCETKKEAQELSQNSAIKQDAQSLHGDIPQKQREITLKGFRNGSFGVLVATNVAARGLDIPEVDLVIQSSPPKDVESYIHRSGRTGRAGRTGVCICFYQHKEEYQLVQVEQKAGIKFKRIGVPSATEIIKASSKDAIRLLDSVPPTAISHFKQSAEKLIEEKGAVEALAAALAHISGATSVDQRSLINSNVGFVTMILQCSIEMPNISYAWKELKEQLGEEIDSKVKGMVFLKGKLGVCFDVPTASVTEIQEKWHDSRRWQLSVATE", "values": [{"measurement": "stoichiometry N", "setting": "[1]", "result": 2}]}, {"binder": "UUUUUUUUUUUUUUU (ssRNA)", "note": "[U15]", "values": [{"measurement": "binding result", "setting": "[2]", "result": "binds"}, {"measurement": "binding result", "setting": "[3]", "result": "binds"}]}, {"binder": "DDX21 del-C (1-710) (domain or fragment, human, UniProt Q9NR30-1 1-710, looked up, human DDX21, residues 1-710; source: E. coli BL21-CodonPlus (DE3)-RIL, purified (Ni-NTA, ULP1 cleavage, Ni-NTA, Superdex 200); not shown: His-sumo, N-terminal, cleaved) MPGKLRSDAGLESDTAMKKGETLRKQTEEKEKKEKPKSDKTEEIAEEEETVFPKAKQVKKKAEPSEVDMNSPKSKKAKKKEEPSQNDISPKTKSLRKKKEPIEKKVVSSKTKKVTKNEEPSEEEIDAPKPKKMKKEKEMNGETREKSPKLKNGFPHPEPDCNPSEAASEESNSEIEQEIPVEQKEGAFSNFPISEETIKLLKGRGVTFLFPIQAKTFHHVYSGKDLIAQARTGTGKTFSFAIPLIEKLHGELQDRKRGRAPQVLVLAPTRELANQVSKDFSDITKKLSVACFYGGTPYGGQFERMRNGIDILVGTPGRIKDHIQNGKLDLTKLKHVVLDEVDQMLDMGFADQVEEILSVAYKKDSEDNPQTLLFSATCPHWVFNVAKKYMKSTYEQVDLIGKKTQKTAITVEHLAIKCHWTQRAAVIGDVIRVYSGHQGRTIIFCETKKEAQELSQNSAIKQDAQSLHGDIPQKQREITLKGFRNGSFGVLVATNVAARGLDIPEVDLVIQSSPPKDVESYIHRSGRTGRAGRTGVCICFYQHKEEYQLVQVEQKAGIKFKRIGVPSATEIIKASSKDAIRLLDSVPPTAISHFKQSAEKLIEEKGAVEALAAALAHISGATSVDQRSLINSNVGFVTMILQCSIEMPNISYAWKELKEQLGEEIDSKVKGMVFLKGKLGVCFDVPTASVTEIQEKWHDSRRWQLSVATE", "values": [{"measurement": "stoichiometry N", "setting": "[1]", "result": 5}]}, {"binder": "full-length DDX21 (1-783) (enzyme, human, UniProt Q9NR30-1 1-783, looked up, human DDX21, residues 1-783, codon-optimised synthetic gene; The text says it might be a trimer (SAXS, gel filtration); also called WT DDX21; RNA helicase DDX21; source: E. coli BL21-CodonPlus (DE3)-RIL, purified (Ni-NTA, ULP1 cleavage, Ni-NTA, Superdex 200); not shown: His-sumo, N-terminal, cleaved) MPGKLRSDAGLESDTAMKKGETLRKQTEEKEKKEKPKSDKTEEIAEEEETVFPKAKQVKKKAEPSEVDMNSPKSKKAKKKEEPSQNDISPKTKSLRKKKEPIEKKVVSSKTKKVTKNEEPSEEEIDAPKPKKMKKEKEMNGETREKSPKLKNGFPHPEPDCNPSEAASEESNSEIEQEIPVEQKEGAFSNFPISEETIKLLKGRGVTFLFPIQAKTFHHVYSGKDLIAQARTGTGKTFSFAIPLIEKLHGELQDRKRGRAPQVLVLAPTRELANQVSKDFSDITKKLSVACFYGGTPYGGQFERMRNGIDILVGTPGRIKDHIQNGKLDLTKLKHVVLDEVDQMLDMGFADQVEEILSVAYKKDSEDNPQTLLFSATCPHWVFNVAKKYMKSTYEQVDLIGKKTQKTAITVEHLAIKCHWTQRAAVIGDVIRVYSGHQGRTIIFCETKKEAQELSQNSAIKQDAQSLHGDIPQKQREITLKGFRNGSFGVLVATNVAARGLDIPEVDLVIQSSPPKDVESYIHRSGRTGRAGRTGVCICFYQHKEEYQLVQVEQKAGIKFKRIGVPSATEIIKASSKDAIRLLDSVPPTAISHFKQSAEKLIEEKGAVEALAAALAHISGATSVDQRSLINSNVGFVTMILQCSIEMPNISYAWKELKEQLGEEIDSKVKGMVFLKGKLGVCFDVPTASVTEIQEKWHDSRRWQLSVATEQPELEGPREGYGGFRGQREGSRGFRGQRDGNRRFRGQREGSRGPRGQRSGGGNKSNRSQNKGQKRSFSKAFGQ", "values": [{"measurement": "stoichiometry N", "setting": "[4]", "result": 3}]}]}
